In the assay the target is T1, COOH-terminal domain of Numb (aa 298–603), purified (human, UniProt P49757-2 298-603).
T1 sequence (looked up): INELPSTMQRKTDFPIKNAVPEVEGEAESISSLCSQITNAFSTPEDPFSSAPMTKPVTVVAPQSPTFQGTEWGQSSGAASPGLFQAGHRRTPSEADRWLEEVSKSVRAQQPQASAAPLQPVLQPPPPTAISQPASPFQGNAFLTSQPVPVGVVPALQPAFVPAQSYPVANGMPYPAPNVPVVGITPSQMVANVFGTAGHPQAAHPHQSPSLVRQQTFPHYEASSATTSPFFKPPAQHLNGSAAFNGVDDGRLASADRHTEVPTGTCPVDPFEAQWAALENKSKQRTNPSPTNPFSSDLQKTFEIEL
Put plainly: pull-down.

B1: GST–α ear (GST fusion protein containing aa 715–977 of the mouse α adaptin) (domain or fragment, UniProt P17426 715-977, looked up)
chain: PMALLADPAPAADPGPEDIGPPIPEADELLNKFVCKNSGVLFENQLLQIGVKSEFRQNLGRMYLFYGNKTSVQFQNFLPTVVHPGDLQTQLAVQTKRVAAQVDGGAQVQQVLNIECLRDFLTPPLLSVRFRYGGTAQSLTLKLPVTINKFFQPTEMAAQDFFQRWKQLSLPLQEAQKIFKANHPMDAEVTKAKLLGFGSALLDNVDPNPENFVGAGIIQTKALQVGCLLRLEPNAQAQMYRLTLRTSKEPVSRHLCELLAQQF
B1: the binding result is “binds”.

(Values after publication PMC2190585 (The Journal of Cell Biology, 2000).)
